Measured values reported in PMC13199644, “Optimized Quantitative Bacterial Two-Hybrid (qB2H) for Protein–Protein Interaction Assessment” (Computational and Structural Biotechnology Journal, 2026).

Molecular target: T1, Recombinant human ASF1AN (residues 1 to 156) (human, UniProt Q9Y294 1-156)
T1 construct: N-terminal domain of human ASF1A, UniProt Q9Y294, residues 1 to 156; Unlabeled for ITC; uniformly 15N- and/or 15N-13C-labeled for NMR; Made from pETM30 with a TEV cleavage site; also called hASF1AN; 15N-ASF1AN; source: E. coli, purified (glutathione agarose, TEV cleavage, Ni-NTA flow-through, Resource Q); not shown: His6, N-terminal, cleaved; GST, N-terminal, cleaved
Test: ITC; VP-ITC, 20 °C, 50 mM tris-HCl pH 7.5; binder injected into the ASF1 solution; One Set of Sites model; duplicate
Conditions: both partners purified

T1 sequence (Q9Y294 1-156): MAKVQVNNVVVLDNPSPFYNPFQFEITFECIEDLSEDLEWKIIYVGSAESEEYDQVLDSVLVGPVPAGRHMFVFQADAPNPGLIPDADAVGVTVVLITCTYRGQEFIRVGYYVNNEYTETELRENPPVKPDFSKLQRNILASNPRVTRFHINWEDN

Binder | Kd
SAAARWAAALAALPGSKWARLARRTAGAGGVTLNGAG (designed binder, designed N-terminal extension; linker; ip4_mutG; source: E. coli BL21(DE3) Star, purified (Ni-NTA, SUMO protease, Resource RPC, Superdex 30); not shown: His6, N-terminal, cleaved; SUMO, N-terminal, cleaved) [Kan[348]_top1 (SAAARWAAALAALP-GSK-ip4_mutG), purified peptide] | 235 ± 26 nM
AEEEAARFAALLAALPGSKWARLARRTAGAGGVTLNGAG (designed binder, designed N-terminal extension; linker; ip4_mutG; source: E. coli BL21(DE3) Star, purified (Ni-NTA, SUMO protease, Resource RPC, Superdex 30); not shown: His6, N-terminal, cleaved; SUMO, N-terminal, cleaved) [T32_Kan[209]_top1 (AEEEAARFAALLAALP-GSK-ip4_mutG), purified peptide] | 152 ± 25 nM
AAAERARFAALLAKLPGSKWARLARRTAGAGGVTLNGAG (designed binder, designed N-terminal extension; linker; ip4_mutG; source: E. coli BL21(DE3) Star, purified (Ni-NTA, SUMO protease, Resource RPC, Superdex 30); not shown: His6, N-terminal, cleaved; SUMO, N-terminal, cleaved) [Kan[348]_top2 (AAAERARFAALLAKLP-GSK-ip4_mutG), purified peptide] | 581 ± 98 nM
WARLARRTAGAGGVTLNGAG (also called constant C-terminal scaffold) [ip4_mutG] | 10600 ± 1000 nM
